We go through eight molecules from US20240279278A1, “NMU RECEPTOR 2 AGONISTS” (Boehringer Ingelheim International GmbH, priority 2023, published 2024).

For one series, the target named is human NMUR2 receptor (Homo sapiens, UniProt Q9GZQ4). In words: IP1 Gq HTRF assay, activation of human NMUR2 in buffer. Type of series: cell-based. More on the design: expressed in transfected cells; host or cells: CHO-K1. The note with it: selectivity for NMUR2 over NMUR1 from IP1 assay in buffer (Example 3). In a few lines: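 IP-One HTRF competition (665/620 nm ratio) read after 1 h agonist exposure at 37 °C in pH 7.4 HEPES/HBSS stimulation buffer containing 50 mM LiCl, 0.1% BSA, 1% DMSO. Cells: CHO-K1 stably expressing human NMUR2 or NMUR1. EC50 by 4-parameter nonlinear regression of 8-point curves.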
For orientation: In TR-FRET formats the signal depends on donor and acceptor labels being close together.

The next series can be described thus: in vivo. Also noted: species or system NMRI mice. The note with it: male, NMRI, mouse, iv. Here is the method:
Example 5: Pharmacokinetics Intravenous (iv) PK in Mouse Pharmacokinetic parameters of the test compounds were determined after intravenous administration to Naval Medical Research Institute (NMRI) mice. Male NMRI mice were obtained either from Charles River (Germany) or from Janvier (France) weighing approximately 30 g to 40 g. Mice were housed in standard cages with light cycle of 12-hour dark and 12-hour light. Standardized food and water were offered ad libitum to the animals during the whole experimental period. The respective peptide was dissolved in 50 mM phosphate buffer (pH 7.4) containing 3.5% mannitol. Intravenous doses of 30 nmol/kg were given via a tail vein. Serial blood samples were collected from the vena saphena into tubes containing EDTA as anticoagulant at different time points up to 48 hours post dosing. After centrifugation for approximately 5 minutes, plasma samples were transferred to 96-well Polymerase Chain Reaction (PCR) plates, immediately frozen and kept at approximately −20° C. until analyzed for plasma concentration by liquid chromatography mass spectrometry (LC-MS/MS). Individual plasma concentration-time profiles were analyzed by a non-compartmental approach, and the resulting pharmacokinetic parameters were determined.

For series [1] the following is noted: cited from earlier work.
Series [2] has as its target human neuromedin U receptor 2 (human, UniProt Q9GZQ4 1-415). In words: cell-based or functional assay.
Series [3] concerns the target T1, human neuromedin U receptor 1 (human, UniProt Q9HB89 24-426).
T1 sequence (looked up): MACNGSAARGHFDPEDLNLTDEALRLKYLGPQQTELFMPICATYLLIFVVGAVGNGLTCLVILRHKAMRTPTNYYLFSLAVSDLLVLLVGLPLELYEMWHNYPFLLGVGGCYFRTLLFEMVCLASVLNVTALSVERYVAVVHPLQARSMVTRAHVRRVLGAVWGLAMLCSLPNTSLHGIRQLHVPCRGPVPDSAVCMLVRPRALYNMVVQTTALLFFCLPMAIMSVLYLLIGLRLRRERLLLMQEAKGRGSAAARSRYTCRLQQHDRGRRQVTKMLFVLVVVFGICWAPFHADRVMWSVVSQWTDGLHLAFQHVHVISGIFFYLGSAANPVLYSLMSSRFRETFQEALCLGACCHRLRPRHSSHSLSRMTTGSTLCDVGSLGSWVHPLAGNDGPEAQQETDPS
In words: cell-based or functional assay.

Chain of human neuromedin U receptor 2 (Q9GZQ4 whole entry): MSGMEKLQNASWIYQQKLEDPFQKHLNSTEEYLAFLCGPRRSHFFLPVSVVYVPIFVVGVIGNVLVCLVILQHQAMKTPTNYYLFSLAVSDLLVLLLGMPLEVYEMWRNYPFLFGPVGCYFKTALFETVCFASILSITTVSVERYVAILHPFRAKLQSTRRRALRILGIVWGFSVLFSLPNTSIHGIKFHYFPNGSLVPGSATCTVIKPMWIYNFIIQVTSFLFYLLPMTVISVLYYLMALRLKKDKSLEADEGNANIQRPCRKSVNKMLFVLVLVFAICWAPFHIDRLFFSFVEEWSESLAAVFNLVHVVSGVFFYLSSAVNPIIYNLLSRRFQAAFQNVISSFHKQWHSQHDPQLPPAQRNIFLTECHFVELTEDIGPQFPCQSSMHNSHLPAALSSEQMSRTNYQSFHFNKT
Chain of human NMUR2 receptor (Q9GZQ4 whole entry): as above

In general, MRT refers to a mean duration of stay, worked out from the concentration-time curve. As to `CCCC[C@H](NC(=O)[C@H](CC(C)C)NC(=O)[C@H](Cc1ccccc1)NC(=O)[C@H](Cc1ccc(O)cc1)NC(=O)CN1CCN(CCNC(=O)CN(C)C(=O)CN(C)C(=O)CN(C)C(=O)CN(C)C(=O)CN(C)C(=O)CN(C)C(=O)CN(C)C(=O)CN(C)C(=O)CN(C)C(=O)CC[C@H](NC(=O)C(=O)CN(C)C(=O)CC[C@H](NC(=O)CC[C@H](NC(=O)CC[C@H](NC(=O)CCCCCCCCCCCCCCCCC(=O)O)C(=O)O)C(=O)O)C(=O)O)C(=O)O)CC1)C(=O)N[C@@H](CCCN)C(=O)N1CCC[C@H]1C(=O)N[C@@H](CCCNC(=N)N)C(=O)NCC(N)=O` [Ref. 6, C18DA-gGlu3-Sar12-AEPipAc-Tyr-Phe-Leu-Nle-Orn-Pro-Arg-Gly-NH2, reference compound], on human NMUR2 receptor, the “EC50 (hNMUR1)/EC50 (hNMUR2)” value came out at 32.4. Further, the MRT in the series “in vivo” turned out to be 4.2 h.
On to Neuromedin U [native NMU], for which the “half-life after subcutaneous injection” value in series [1] is “less than 5 min”.

B1: C18DA-gGlu3-Sar12-AEPipAc-Tyr-Phe-Leu-Nle-Orn-Pro-Arg-Gly-NH2 (peptide)
peptide: EEEXXXXXXXXXXXXXYFLXXPRG
HELM: PEPTIDE1{[O=C(O)CCCCCCCCCCCCCCCCC(=O)[*:2]].[gGlu].[gGlu].[gGlu].[Sar].[Sar].[Sar].[Sar].[Sar].[Sar].[Sar].[Sar].[Sar].[Sar].[Sar].[Sar].[O=C(CN1CCN(CCN[*:1])CC1)[*:2]].Y.F.L.[Nle].[Orn].P.R.G.[am]}$$$$V2.0
SMILES: CCCC[C@H](NC(=O)[C@H](CC(C)C)NC(=O)[C@H](Cc1ccccc1)NC(=O)[C@H](Cc1ccc(O)cc1)NC(=O)CN1CCN(CCNC(=O)CN(C)C(=O)CN(C)C(=O)CN(C)C(=O)CN(C)C(=O)CN(C)C(=O)CN(C)C(=O)CN(C)C(=O)CN(C)C(=O)CN(C)C(=O)CN(C)C(=O)CN(C)C(=O)CN(C)C(=O)CC[C@H](NC(=O)CC[C@H](NC(=O)CC[C@H](NC(=O)CCCCCCCCCCCCCCCCC(=O)O)C(=O)O)C(=O)O)C(=O)O)CC1)C(=O)N[C@@H](CCCN)C(=O)N1CCC[C@H]1C(=O)N[C@@H](CCCNC(=N)N)C(=O)NCC(N)=O
Take B1: the “EC50 (activity as measured in Example 3)” value in series [2] is 2.1 nM; in series [3], 68 nM.

B2: C20DA-gGlu3-Sar15-AEPipAc-Tyr-Phe-Leu-Nle-Orn-Pro-Arg-Gly-NH2 (peptide)
peptide: EEEXXXXXXXXXXXXXXXXYFLXXPRG
HELM: PEPTIDE1{[O=C(O)CCCCCCCCCCCCCCCCCCC(=O)[*:2]].[gGlu].[gGlu].[gGlu].[Sar].[Sar].[Sar].[Sar].[Sar].[Sar].[Sar].[Sar].[Sar].[Sar].[Sar].[Sar].[Sar].[Sar].[Sar].[O=C(CN1CCN(CCN[*:1])CC1)[*:2]].Y.F.L.[Nle].[Orn].P.R.G.[am]}$$$$V2.0
SMILES: CCCC[C@H](NC(=O)[C@H](CC(C)C)NC(=O)[C@H](Cc1ccccc1)NC(=O)[C@H](Cc1ccc(O)cc1)NC(=O)CN1CCN(CCNC(=O)CN(C)C(=O)CN(C)C(=O)CN(C)C(=O)CN(C)C(=O)CN(C)C(=O)CN(C)C(=O)CN(C)C(=O)CN(C)C(=O)CN(C)C(=O)CN(C)C(=O)CN(C)C(=O)CN(C)C(=O)CN(C)C(=O)CN(C)C(=O)CN(C)C(=O)CC[C@H](NC(=O)CC[C@H](NC(=O)CC[C@H](NC(=O)CCCCCCCCCCCCCCCCCCC(=O)O)C(=O)O)C(=O)O)C(=O)O)CC1)C(=O)N[C@@H](CCCN)C(=O)N1CCC[C@H]1C(=O)N[C@@H](CCCNC(=N)N)C(=O)NCC(N)=O
As for B2, the “EC50 (activity as measured in Example 3)” value in series [2] was found to be 3 nM; in series [3] it was 75 nM.

B3: C20A-gGlu3-Sar15-AEPipAc-Tyr-Phe-NMeLeu-Nle-Orn-Pro-Arg-Gly-NH2 (peptide)
peptide: EEEXXXXXXXXXXXXXXXXYFLXXPRG
HELM: PEPTIDE1{[CCCCCCCCCCCCCCCCCCCC(=O)[*:2]].[gGlu].[gGlu].[gGlu].[Sar].[Sar].[Sar].[Sar].[Sar].[Sar].[Sar].[Sar].[Sar].[Sar].[Sar].[Sar].[Sar].[Sar].[Sar].[O=C(CN1CCN(CCN[*:1])CC1)[*:2]].Y.F.[meL].[Nle].[Orn].P.R.G.[am]}$$$$V2.0
SMILES: CCCCCCCCCCCCCCCCCCCC(=O)N[C@@H](CCC(=O)N[C@@H](CCC(=O)N[C@@H](CCC(=O)N(C)CC(=O)N(C)CC(=O)N(C)CC(=O)N(C)CC(=O)N(C)CC(=O)N(C)CC(=O)N(C)CC(=O)N(C)CC(=O)N(C)CC(=O)N(C)CC(=O)N(C)CC(=O)N(C)CC(=O)N(C)CC(=O)N(C)CC(=O)N(C)CC(=O)NCCN1CCN(CC(=O)N[C@@H](Cc2ccc(O)cc2)C(=O)N[C@@H](Cc2ccccc2)C(=O)N(C)[C@@H](CC(C)C)C(=O)N[C@@H](CCCC)C(=O)N[C@@H](CCCN)C(=O)N2CCC[C@H]2C(=O)N[C@@H](CCCNC(=N)N)C(=O)NCC(N)=O)CC1)C(=O)O)C(=O)O)C(=O)O
Regarding B3, the figures for the “EC50 (activity as measured in Example 3)” value in series [2] and in series [3] were 0.054 nM and 0.33 nM, respectively.

B4: C18A-gGlu3-Sar15-AEPipAc-Tyr-Phe-NMeLeu-Nle-Arg-Pro-Arg-Gly-NH2 (peptide)
peptide: EEEXXXXXXXXXXXXXXXXYFLXRPRG
HELM: PEPTIDE1{[CCCCCCCCCCCCCCCCCC(=O)[*:2]].[gGlu].[gGlu].[gGlu].[Sar].[Sar].[Sar].[Sar].[Sar].[Sar].[Sar].[Sar].[Sar].[Sar].[Sar].[Sar].[Sar].[Sar].[Sar].[O=C(CN1CCN(CCN[*:1])CC1)[*:2]].Y.F.[meL].[Nle].R.P.R.G.[am]}$$$$V2.0
SMILES: CCCCCCCCCCCCCCCCCC(=O)N[C@@H](CCC(=O)N[C@@H](CCC(=O)N[C@@H](CCC(=O)N(C)CC(=O)N(C)CC(=O)N(C)CC(=O)N(C)CC(=O)N(C)CC(=O)N(C)CC(=O)N(C)CC(=O)N(C)CC(=O)N(C)CC(=O)N(C)CC(=O)N(C)CC(=O)N(C)CC(=O)N(C)CC(=O)N(C)CC(=O)N(C)CC(=O)NCCN1CCN(CC(=O)N[C@@H](Cc2ccc(O)cc2)C(=O)N[C@@H](Cc2ccccc2)C(=O)N(C)[C@@H](CC(C)C)C(=O)N[C@@H](CCCC)C(=O)N[C@@H](CCCNC(=N)N)C(=O)N2CCC[C@H]2C(=O)N[C@@H](CCCNC(=N)N)C(=O)NCC(N)=O)CC1)C(=O)O)C(=O)O)C(=O)O
B4: the figures for the “EC50 (activity as measured in Example 3)” value in series [2] and in series [3] were 0.046 nM and 0.2 nM, respectively.

B5: C18DA-gGlu3-Sar15-AEPipAc-Tyr-Phe-Leu-Nle-Arg-Pro-Arg-Gly-NH2 (peptide)
peptide: EEEXXXXXXXXXXXXXXXXYFLXRPRG
HELM: PEPTIDE1{[O=C(O)CCCCCCCCCCCCCCCCC(=O)[*:2]].[gGlu].[gGlu].[gGlu].[Sar].[Sar].[Sar].[Sar].[Sar].[Sar].[Sar].[Sar].[Sar].[Sar].[Sar].[Sar].[Sar].[Sar].[Sar].[O=C(CN1CCN(CCN[*:1])CC1)[*:2]].Y.F.L.[Nle].R.P.R.G.[am]}$$$$V2.0
SMILES: CCCC[C@H](NC(=O)[C@H](CC(C)C)NC(=O)[C@H](Cc1ccccc1)NC(=O)[C@H](Cc1ccc(O)cc1)NC(=O)CN1CCN(CCNC(=O)CN(C)C(=O)CN(C)C(=O)CN(C)C(=O)CN(C)C(=O)CN(C)C(=O)CN(C)C(=O)CN(C)C(=O)CN(C)C(=O)CN(C)C(=O)CN(C)C(=O)CN(C)C(=O)CN(C)C(=O)CN(C)C(=O)CN(C)C(=O)CN(C)C(=O)CC[C@H](NC(=O)CC[C@H](NC(=O)CC[C@H](NC(=O)CCCCCCCCCCCCCCCCC(=O)O)C(=O)O)C(=O)O)C(=O)O)CC1)C(=O)N[C@@H](CCCNC(=N)N)C(=O)N1CCC[C@H]1C(=O)N[C@@H](CCCNC(=N)N)C(=O)NCC(N)=O
For the molecule B5, the “EC50 (activity as measured in Example 3)” value in series [2] stood at 1.7 nM; in series [3], 21 nM.

B6: C18A-gGlu3-Sar12-AEPipAc-Tyr-Phe-NMeLeu-Nle-Orn-Pro-Arg-Gly-NH2 (peptide)
peptide: EEEXXXXXXXXXXXXXYFLXXPRG
HELM: PEPTIDE1{[CCCCCCCCCCCCCCCCCC(=O)[*:2]].[gGlu].[gGlu].[gGlu].[Sar].[Sar].[Sar].[Sar].[Sar].[Sar].[Sar].[Sar].[Sar].[Sar].[Sar].[Sar].[O=C(CN1CCN(CCN[*:1])CC1)[*:2]].Y.F.[meL].[Nle].[Orn].P.R.G.[am]}$$$$V2.0
SMILES: CCCCCCCCCCCCCCCCCC(=O)N[C@@H](CCC(=O)N[C@@H](CCC(=O)N[C@@H](CCC(=O)N(C)CC(=O)N(C)CC(=O)N(C)CC(=O)N(C)CC(=O)N(C)CC(=O)N(C)CC(=O)N(C)CC(=O)N(C)CC(=O)N(C)CC(=O)N(C)CC(=O)N(C)CC(=O)N(C)CC(=O)NCCN1CCN(CC(=O)N[C@@H](Cc2ccc(O)cc2)C(=O)N[C@@H](Cc2ccccc2)C(=O)N(C)[C@@H](CC(C)C)C(=O)N[C@@H](CCCC)C(=O)N[C@@H](CCCN)C(=O)N2CCC[C@H]2C(=O)N[C@@H](CCCNC(=N)N)C(=O)NCC(N)=O)CC1)C(=O)O)C(=O)O)C(=O)O
As for B6, the “EC50 (activity as measured in Example 3)” value in series [2] was found to be 0.047 nM; in series [3], 0.37 nM.
